Molecular target: 6×His tag-AVI tag-DPP4 fusion protein, site-directed biotinylated and labeled with color latex throu (human), P27487
Settings: remark: other sources report otherwise

B1: Recombinant S1 protein of MERS-CoV, K9N5Q8 18-725 (ligand)
chain: YVDVGPDSVKSACIEVDIQQTFFDKTWPRPIDVSKADGIIYPQGRTYSNITITYQGLFPYQGDHGDMYVYSAGHATGTTPQKLFVANYSQDVKQFANGFVVRIGAAANSTGTVIISPSTSATIRKIYPAFMLGSSVGNFSDGKMGRFFNHTLVLLPDGCGTLLRAFYCILEPRSGNHCPAGNSYTSFATYHTPATDCSDGNYNRNASLNSFKEYFNLRNCTFMYTYNITEDEILEWFGITQTAQGVHLFSSRYVDLYGGNMFQFATLPVYDTIKYYSIIPHSIRSIQSDRKAWAAFYVYKLQPLTFLLDFSVDGYIRRAIDCGFNDLSQLHCSYESFDVESGVYSVSSFEAKPSGSVVEQAEGVECDFSPLLSGTPPQVYNFKRLVFTNCNYNLTKLLSLFSVNDFTCSQISPAAIASNCYSSLILDYFSYPLSMKSDLSVSSAGPISQFNYKQSFSNPTCLILATVPHNLTTITKPLKYSYINKCSRFLSDDRTEVPQLVNANQYSPCVSIVPSTVWEDGDYYRKQLSPLEGGGWLVASGSTVAMTEQLQMGFGITVQYGTDTNSVCPKLEFANDTKIASQLGNCVEYSLYGVSGRGVFQNCTAVGVRQQRFVYDAYQNLVGYYSDDGNYYCLRACVSVPVSVIYDKETKTHATLFGSVACEHISSTMSQYSRSTRSMLKRRDSTYGPLQTPVGCVLGLVNSSLFVE
B1 showed a sensitivity of the test strip (lowest positive concentration) of 10 nM.

— US20210301295A1
